experiment: soluble on expression in E. coli; label from the status in PepcDB or PDB records

| Sequence | soluble on expression in E. coli |
| --- | --- |
| IRDFSYGVKFVLSDSQQKILKYPNEDYNIGTYYKGQKLNNIWGYKTIGIAQSQEEMDAHLAKVDQSALGSKWGAGDIMYADLDGDGKISTGSNKLGDTGDRVILGNSTPRFNYGLTIDASWKGIDFRAFFQGIGKRDYWLQGPYFWGSTGLGQWQAAGFKEHWDFWRPEGDPLGANTNAYYPRVARNGGKNTNVQSRYLQNAAYCRLKNIQIGYTLPKTWTEKAGMSSVRVYVSGDNLLTFSDITGIFDPEAIGSTYDANNGKLYPLQRVISVGLNVNF | not soluble |
| ITRDEVGELARVMNEMASQIERNLARISAEKNRLDTILRGMGEGLMVSDAGGTVTLVNPAFLELFGLTQSVEGRQIIEIARFPELHETFRAVVSSRSEHVEEMTLPLGDEKQVLTHWVPLMEE | not soluble |
| IVSREAKLQFAYLENFKTKMRSTVSVREGQGVVLLCGPPPHSGELSYAWIFNEYPSFVEEDSRRFVSQETGHLYISKVEPSDVGNYTCVVTSMVTNARVLGSPTPLVLRSDGVMGEYEPKIEVQFPETLPAAKGSTVKLECFALGNPIPQINWRRSDGLPFSSKIKLRKFSGVLEIPNFQQEDAGSYECIAENSRGKNVARGRLTYYAKPHWVQLIKDVEIAVEDSLYWECRASGKPKPSYRWLKNGAALVLEERTQIENGALTISNLSVTDSGMFQCIAENKHGLVYSSAELKVVASAPDFSKNPMKKLVQVQVGSLVSLDCKPRASPRALSSWKKGDVSVQEHERISLLNDGGLKIANVTKADAGTYTCMAENQFGKANGTTHLVVTEPTRITLAPSNMDVSVGESVILPCQVQHDPLLDIIFTWYFNGALADFKKDGSHFEKVGGSSSGDLMIRNIQLKHSGKYVCMVQTGVDSVSSAADLIVRGSPGPPENVKVDEITDTTAQLSWKEGKDNHSPVISYSIQARTPFSVGWQTVTTVPEVIDGKTHTATVVELNPWVEYEFRVVASNKIGGGEPSLPSEKVRTEEAVPEVPPSEVNGGGGSRSELVITWDPVPEELQNGEGFGYVVAFRPLGVTTWIQTVVTSPDTPRYVFRNESIVPYSPYEVKVGVYNNKGEGPFSPVTTVFSAEEEPTVAPSQVSANSLSSSEIEVSWNTIPWKLSNGHLLGYEVRYWNGGGKEESSSKMKVAGNETSARLRGLKSNLAYYTAVRAYNSAGAGPFSATVNVTTKKTPPSQPPGNVVWNATDTKVLLNWEQVKAMENESEVTGYKVFYRTSSQNNVQVLNTNKTSAELVLPIKEDYIIEVKATTDGGDGTSSEQIRIPRITSMDARGSTSAISNVHPMSSYMPIVLFLIVYVLW | soluble |
| KAELKMLEAIEEDLNTRFADVDRKQLRLGAAGTFQKQEDADQWYKMVKDTFENEIDDIYYDSLSFSIGCHVGPNAIGIGISVVTRDEK | not soluble |
| KAGQVDTNDLWSSIPVSPDEYITQRLPILVARMREQWSNNDHVKRYIDLCRRNIVGPRGIVMQAQSRKSRSGALDTAINDAIETWWQDWGRKGQCEVTGKLSWREIQTLCVETCARDGEFIARKIYGTHAGPHGFCLQLIDPLRLPVRYQMLKTDQTGGFVRQGIEFNRFGKPLAYHFSSIDERDTYYYSINGRGYIRVPAEEVIHIFKPVMVGQRRGLPWAATSLLRLHHLQGFEEAAVQNARAAASKMGFVCYPEGVGPRADEQENVAQTIQMNAGPLAIHELPQGAEFQDWNPQYPSGEFGLFTKAAKQSLAAGMDLSYHALSGDLADVNYSSIRQGTLDERERWKEDQQ | not soluble |
| KAPFLILMHRNPDPDAMASAMALKTIFDKWGVSSEIAYGGKIGYDENKAMVNLLSIKLNPIDEINLSRYCSIAVVDSSSSKTLPIDVEDSKLSVIIDHHNDSDIVAKYMDILPEIGATATILTKYLLELEIAPNRDLATALYYAITSDTNYFKRKTSKKDFEAASYLQGLMDPKVLEMIENPDM | not soluble |
| KEIIVNENDILLLWDGSNAGEIFLGKKGILSSTMVKLEQKNKIMDDLYLFYSLKLKESFLKSQTKGTGIPHVDKKIFENIKIPLPPLEEQKQIAKILSDFDN | not soluble |
| KEYFSVWMEDIIYFENSGRNVKIMTIDGTDLFVGNIKDIAKEVLPYGFIQISQSIIVNYNFVSKYSREEIILINKEKIAIPKNKRNGVKEQFL | not soluble |
| KFGIARSGAMDEDALRMANILLGNKQDEAGIELCLKGGKYEFLDENYFVLSGAEFEAKLDNQKIKTCKVYQANKGDILELDLAKIGFRGYLCVAGGFEVKSFLNSKSSDAKMGAGVFEGRALQKDDILNTHNTFIPFNLEARECENPLFKSPKEPIIRVILGTNEDAFTQKGIETFLNTTYKVGLKSDRMAIYAESSESIEHKNSADIISDPAVFGSIQVPKSGIPIILMAGRQSTGGYTKIATVIENDLSLLAQAKLGSSFKFQSISMQEALELYKQREMK | not soluble |

— the DeepSol protein solubility set
